Positions of bridges follow the written chain, without caps; N, C: chain ends. No end group written: not given here. PEG = not defined here
Tests used:
[1] = target: EGFR on the surface of tumor cells (human) (UniProt P00533); test: flow cytometry on A431 cells preincubated with 2 ug EGF, 2 uM bio-P190: avidin complex, 4° C.
[2] = target: EGFR on the surface of tumor cells (human) (UniProt P00533)

For DPCTWEVWGRECLQ-{PEG-biotin} (disulfide 3-12 (inferred); reading uncertain) [Biotinylated-PEGylated P190], the staining over background [1] was 20 fold.

B1: P190-DOXIL (peptide)
peptide: DPCTWEVWGRECLQ
modifications: disulfide 3-12 (inferred); not fully specified (N-terminus); also: inserted into DOXIL liposomes (doxorubicin)
For B1, the IC50 D4 [2] was 120 µg/mL and the IC50 D6 [2] was 35 µg/mL.

Reference: patent publication US8278415B2
